According to publication PMC11475706, “ProEnd: a comprehensive database for identifying HbYX motif-containing proteins across the tree of life” (BMC Genomics, 2024):

Target: T1, PAN-2 (MJ1494), HbYX ATPase from Methanocaldococcus jannaschii (Methanocaldococcus jannaschii, UniProt Q58889 1-371)
T1 construct: PAN-2 (MJ1494), Methanocaldococcus jannaschii, UniProt Q58889; The hexameric state is only an AlphaFold Multimer prediction, not a measurement; also called putative 26S proteasome regulatory subunit; source: E. coli BL21 star DE3 (pET-28a(+), IPTG), held on Ni-NTA agarose from clarified lysate and washed; not shown: His6, N-terminal, kept
T1 sequence (looked up): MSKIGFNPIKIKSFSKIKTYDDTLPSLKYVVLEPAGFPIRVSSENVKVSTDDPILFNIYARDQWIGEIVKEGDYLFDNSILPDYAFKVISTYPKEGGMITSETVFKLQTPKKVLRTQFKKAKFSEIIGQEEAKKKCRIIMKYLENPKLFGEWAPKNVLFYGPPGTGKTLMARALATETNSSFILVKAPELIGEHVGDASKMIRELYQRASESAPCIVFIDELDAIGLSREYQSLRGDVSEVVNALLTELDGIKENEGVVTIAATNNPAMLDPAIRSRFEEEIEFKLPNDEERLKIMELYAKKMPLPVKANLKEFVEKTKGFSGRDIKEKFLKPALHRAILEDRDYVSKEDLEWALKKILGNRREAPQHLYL
Assay: pull-down; 6His-PAN-2 held on Ni-NTA agarose, washed with 50 mM Tris, 100 mM NaCl, 2 mM ATP, 10 mM MgCl2; tagless T20S incubated 20 min at room temperature; washed; eluted with 150 mM imidazole; T20S in the eluate quantified by suc-LLVY-amc hydrolysis; control: Ni-NTA columns with T20S alone
Settings: both partners purified

B1: T20S proteasome (20S from Thermoplasma acidophilum) (complex)
chain 1: MQQGQMAYDRAITVFSPDGRLFQVEYAREAVKKGSTALGMKFANGVLLISDKKVRSRLIEQNSIEKIQLIDDYVAAVTSGLVADARVLVDFARISAQQEKVTYGSLVNIENLVKRVADQMQQYTQYGGVRPYGVSLIFAGIDQIGPRLFDCDPAGTINEYKATAIGSGKDAVVSFLEREYKENLPEKEAVTLGIKALKSSLEEGEELKAPEIASITVGNKYRIYDQEEVKKFL
chain 2: TTTVGITLKDAVIMATERRVTMENFIMHKNGKKLFQIDTYTGMTIAGLVGDAQVLVRYMKAELELYRLQRRVNMPIEAVATLLSNMLNQVKYMPYMVQLLVGGIDTAPHVFSIDAAGGSVEDIYASTGSGSPFVYGVLESQYSEKMTVDEGVDLVIRAISAAKQRDSASGGMIDVAVITRKDGYVQLPTDQIESRIRKLGLIL
notes: proteasome subunit alpha, Thermoplasma acidophilum; proteasome subunit beta, Thermoplasma acidophilum; The C-terminal 6His tag on the beta subunits is preceded by a TEV site, so residues of that site probably stay at the beta C-terminus after the cut (surmise); also called archaeal proteasome T20S; archaeal 20S proteasome; source: recombinant, expressed from pET-28a(+), purified (Ni-NTA, TEV cut, …)
With B1 the “fold T20S pulled down against control Ni-NTA columns” value was 7 fold.
